Results published in IntAct's records for PubMed 15064722.

B1: WW domain-binding protein 1 (Homo sapiens), Q96G27 (parent)
chain: MARASSGNGSEEAWGALRAPQQQLRELCPGVNNQPYLCESGHCCGETGCCTYYYELWWFWLLWTVLILFSCCCAFRHRRAKLRLQQQQRQREINLLAYHGACHGAGPFPTGSLLDLRFLSTFKPPAYEDVVHRPGTPPPPYTVAPGRPLTASSEQTCCSSSSSCPAHFEGTNVEGVSSHQSAPPHQEGEPGAGVTPASTPPSCRYRRLTGDSGIELCPCPASGEGEPVKEVRVSATLPDLEDYSPCALPPESVPQIFPMGLSSSEGDIP
partner: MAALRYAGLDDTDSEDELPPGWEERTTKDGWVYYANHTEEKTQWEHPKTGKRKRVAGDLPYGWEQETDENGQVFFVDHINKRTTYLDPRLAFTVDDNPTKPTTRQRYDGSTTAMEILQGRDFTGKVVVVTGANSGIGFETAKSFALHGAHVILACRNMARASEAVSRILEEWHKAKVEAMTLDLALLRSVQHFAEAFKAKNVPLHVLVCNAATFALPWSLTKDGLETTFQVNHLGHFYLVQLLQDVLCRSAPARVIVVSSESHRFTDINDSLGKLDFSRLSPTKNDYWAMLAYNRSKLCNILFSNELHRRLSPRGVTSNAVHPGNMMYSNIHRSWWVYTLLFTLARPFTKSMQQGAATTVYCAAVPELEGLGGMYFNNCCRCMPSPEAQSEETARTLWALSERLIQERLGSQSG
B2: Lipopolysaccharide-induced tumor necrosis factor-alpha factor (Homo sapiens), Q99732 (parent)
chain: MSVPGPYQAATGPSSAPSAPPSYEETVAVNSYYPTPPAPMPGPTTGLVTGPDGKGMNPPSYYTQPAPIPNNNPITVQTVYVQHPITFLDRPIQMCCPSCNKMIVSQLSYNAGALTWLSCGSLCLLGCIAGCCFIPFCVDALQDVDHYCPNCRALLGTYKRL
partner: B1 partner
B3: WW domain-containing oxidoreductase (Homo sapiens), Q9NZC7 (parent)
chain: B1 partner

Variants of: B1
Settings: with wwox_human WWOX

| effect of a mutation on the interaction | Variant |
| --- | --- |
| disrupting interaction | Y141A |

Variants of: B2
Settings: with wwox_human WWOX

| effect of a mutation on the interaction | Variant |
| --- | --- |
| disrupting interaction | Y23A;Y61A |
| decreasing interaction | Y23A |

Variants of: B3
Settings: with litaf_human LITAF

| effect of a mutation on the interaction | Variant |
| --- | --- |
| decreasing interaction | Y85A;P88A |
| disrupting interaction | W44F;P47A |
